Data taken from patent publication US20230050148A1 (SCHOLAR ROCK, published 2023).

Key:
[1] = biological target: hLTBP1-proTGFβ1 in the cell-based potency assay (human, UniProt P01137 30-390; Q14766 347-1721); assay: cell-based or functional assay
[2] = biological target: hLTBP3-proTGFβ1 in the cell-based potency assay (human, UniProt P01137 30-390; Q9NS15 44-1303); assay: cell-based or functional assay
[3] = biological target: hGARP-proTGFβ1 in the cell-based potency assay (human, UniProt P01137 30-390; Q14392 20-662); assay: cell-based or functional assay
[4] = biological target: hLRRC33-proTGFβ1 in the cell-based potency assay (human, UniProt P01137 30-390; Q86YC3 19-651); assay: cell-based or functional assay
LTBP:proTGFβ1 = LTBP:proTGFβ1 (human); assay: cell-based or functional assay
Human = Human (human); assay: cell-based or functional assay
Rat = Rat (rat); assay: cell-based or functional assay
Cyno = biological target: T1, Cyno (cynomolgus monkey); assay: cell-based or functional assay
T1 chain: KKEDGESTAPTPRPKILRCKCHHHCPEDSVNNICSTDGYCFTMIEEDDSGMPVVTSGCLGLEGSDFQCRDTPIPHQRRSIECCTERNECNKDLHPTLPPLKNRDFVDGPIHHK

[5] = biological target: T2, recombinant human LTBP1-proTGFβ1 complex (human, UniProt Q14766 873-1507); assay: SPR (Biacore 8K), biotinylated antigen on Biotin CAP chip, Fab 0.62-10 nM, 1:1 fit
T2 construct: range 873-1507; Purified large latent complex (proTGFβ1 dimer disulfide-linked to one presenting molecule); biotinylated in BLI, MSD-SET and SPR assays; also called hLTBP1-proTGFβ1; hLTBP1

[6] = biological target: T3, recombinant human LTBP3-proTGFβ1 complex (human, UniProt Q9NS15 866-1039); assay: as above
T3 construct: range 866-1039; Purified large latent complex; also called hLTBP3-proTGFβ1; hLTBP3

[7] = biological target: T4, recombinant human GARP-proTGFβ1 complex (human, UniProt P01137 30-390; Q14392 20-627); assay: as above
T4 construct: C-terminally His-tagged GARP ectodomain (sGARP) in complex with latent TGFβ1; also called hGARP-proTGFβ1; hGARP

[8] = biological target: T5, recombinant human LRRC33-proTGFβ1 complex (human, UniProt P01137 30-390; Q86YC3 19-650); assay: as above
T5 construct: C-terminally His-tagged LRRC33 ectodomain (sLRRC33); also called hLRRC33-proTGFβ1; hLRRC33

T2 sequence (chain, as listed by the source limits assumed, chain 1 of 2): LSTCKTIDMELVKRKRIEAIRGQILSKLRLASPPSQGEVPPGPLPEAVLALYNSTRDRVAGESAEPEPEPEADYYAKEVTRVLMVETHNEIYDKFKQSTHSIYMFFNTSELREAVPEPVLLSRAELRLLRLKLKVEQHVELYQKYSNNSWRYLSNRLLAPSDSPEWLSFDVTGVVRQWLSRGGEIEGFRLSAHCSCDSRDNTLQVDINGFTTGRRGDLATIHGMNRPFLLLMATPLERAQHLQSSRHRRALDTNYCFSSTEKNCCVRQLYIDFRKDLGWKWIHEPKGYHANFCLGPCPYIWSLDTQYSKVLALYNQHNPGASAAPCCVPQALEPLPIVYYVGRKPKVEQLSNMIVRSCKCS
T2 sequence (Q14766 873-1507 limits assumed, chain 2 of 2): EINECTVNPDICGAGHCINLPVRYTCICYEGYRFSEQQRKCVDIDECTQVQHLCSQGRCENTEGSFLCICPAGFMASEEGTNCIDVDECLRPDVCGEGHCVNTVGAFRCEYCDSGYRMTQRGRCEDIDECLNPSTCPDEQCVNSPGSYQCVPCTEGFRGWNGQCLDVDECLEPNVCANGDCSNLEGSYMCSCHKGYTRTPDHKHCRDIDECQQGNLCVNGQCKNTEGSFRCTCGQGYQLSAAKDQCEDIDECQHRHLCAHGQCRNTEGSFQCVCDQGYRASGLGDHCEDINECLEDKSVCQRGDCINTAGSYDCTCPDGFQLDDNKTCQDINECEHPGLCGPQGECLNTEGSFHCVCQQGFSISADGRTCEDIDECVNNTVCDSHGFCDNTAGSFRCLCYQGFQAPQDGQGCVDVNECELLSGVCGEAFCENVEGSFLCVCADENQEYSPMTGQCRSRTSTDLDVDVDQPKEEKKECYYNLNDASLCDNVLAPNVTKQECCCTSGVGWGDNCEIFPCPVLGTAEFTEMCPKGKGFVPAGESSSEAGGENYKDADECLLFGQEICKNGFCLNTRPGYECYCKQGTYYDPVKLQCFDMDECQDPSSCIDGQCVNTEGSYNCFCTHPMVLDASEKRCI
hGARP-proTGFβ1 in the cell-based potency assay, sequence (P01137 30-390 limits assumed, chain 1 of 2): as the sequence (chain, as listed by the source limits assumed, chain 1 of 2) above
hGARP-proTGFβ1 in the cell-based potency assay, sequence (Q14392 20-662 limits assumed, chain 2 of 2): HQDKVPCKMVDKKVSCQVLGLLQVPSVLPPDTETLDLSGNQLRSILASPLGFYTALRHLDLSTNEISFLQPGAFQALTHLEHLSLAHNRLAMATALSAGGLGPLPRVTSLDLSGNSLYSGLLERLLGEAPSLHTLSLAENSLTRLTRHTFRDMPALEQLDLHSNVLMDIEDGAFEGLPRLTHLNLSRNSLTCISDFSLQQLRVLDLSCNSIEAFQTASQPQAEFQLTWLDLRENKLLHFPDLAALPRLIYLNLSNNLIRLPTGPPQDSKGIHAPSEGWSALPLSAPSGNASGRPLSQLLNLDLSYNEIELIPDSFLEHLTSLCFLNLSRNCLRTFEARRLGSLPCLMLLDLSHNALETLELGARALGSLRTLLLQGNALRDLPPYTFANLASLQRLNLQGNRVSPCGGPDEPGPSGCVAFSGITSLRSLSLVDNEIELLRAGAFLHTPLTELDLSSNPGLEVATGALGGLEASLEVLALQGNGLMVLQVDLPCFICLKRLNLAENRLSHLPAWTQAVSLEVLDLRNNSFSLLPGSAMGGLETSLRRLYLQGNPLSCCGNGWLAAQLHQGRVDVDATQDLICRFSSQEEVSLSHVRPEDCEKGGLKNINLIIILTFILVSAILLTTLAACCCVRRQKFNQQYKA
hLTBP1-proTGFβ1 in the cell-based potency assay, sequence (P01137 30-390 limits assumed, chain 1 of 2): as the sequence (chain, as listed by the source limits assumed, chain 1 of 2) above
hLTBP1-proTGFβ1 in the cell-based potency assay, sequence (Q14766 347-1721 limits assumed, chain 2 of 2): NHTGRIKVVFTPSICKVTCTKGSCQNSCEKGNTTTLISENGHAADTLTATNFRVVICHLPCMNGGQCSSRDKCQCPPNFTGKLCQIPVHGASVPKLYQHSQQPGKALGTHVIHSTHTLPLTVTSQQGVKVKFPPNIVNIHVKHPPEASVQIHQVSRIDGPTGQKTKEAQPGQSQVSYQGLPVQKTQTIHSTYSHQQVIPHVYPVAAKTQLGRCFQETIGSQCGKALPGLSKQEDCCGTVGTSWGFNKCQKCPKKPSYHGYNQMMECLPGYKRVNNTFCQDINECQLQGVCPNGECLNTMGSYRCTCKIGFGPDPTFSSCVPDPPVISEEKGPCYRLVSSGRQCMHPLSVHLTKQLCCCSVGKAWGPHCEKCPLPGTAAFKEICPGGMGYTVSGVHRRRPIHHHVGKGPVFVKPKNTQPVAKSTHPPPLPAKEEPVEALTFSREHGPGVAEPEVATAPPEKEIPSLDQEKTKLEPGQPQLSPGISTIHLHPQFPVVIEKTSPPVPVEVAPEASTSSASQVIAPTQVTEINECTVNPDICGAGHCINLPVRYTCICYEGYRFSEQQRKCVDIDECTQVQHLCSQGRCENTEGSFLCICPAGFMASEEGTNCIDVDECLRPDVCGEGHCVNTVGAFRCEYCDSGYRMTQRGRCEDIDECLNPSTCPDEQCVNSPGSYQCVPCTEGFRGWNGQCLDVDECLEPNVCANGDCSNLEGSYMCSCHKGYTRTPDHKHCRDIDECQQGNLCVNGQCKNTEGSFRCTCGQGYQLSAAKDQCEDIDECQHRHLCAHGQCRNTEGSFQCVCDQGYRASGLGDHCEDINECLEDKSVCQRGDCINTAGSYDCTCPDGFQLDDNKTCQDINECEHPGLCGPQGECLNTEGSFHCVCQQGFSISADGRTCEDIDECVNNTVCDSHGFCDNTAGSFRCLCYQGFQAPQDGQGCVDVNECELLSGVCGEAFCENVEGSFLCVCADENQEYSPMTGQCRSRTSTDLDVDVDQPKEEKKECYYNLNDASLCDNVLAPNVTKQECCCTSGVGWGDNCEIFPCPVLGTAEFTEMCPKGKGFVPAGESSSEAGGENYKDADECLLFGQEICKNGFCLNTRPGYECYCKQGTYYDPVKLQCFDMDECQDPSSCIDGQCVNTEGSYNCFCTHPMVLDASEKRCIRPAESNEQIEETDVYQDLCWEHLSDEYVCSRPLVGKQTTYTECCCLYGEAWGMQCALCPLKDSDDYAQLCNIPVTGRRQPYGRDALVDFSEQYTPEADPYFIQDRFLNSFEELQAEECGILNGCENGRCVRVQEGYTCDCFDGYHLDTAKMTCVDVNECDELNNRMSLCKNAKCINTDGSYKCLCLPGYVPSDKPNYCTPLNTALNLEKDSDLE
hLRRC33-proTGFβ1 in the cell-based potency assay, sequence (P01137 30-390 limits assumed, chain 1 of 2): as the sequence (chain, as listed by the source limits assumed, chain 1 of 2) above
hLRRC33-proTGFβ1 in the cell-based potency assay, sequence (Q86YC3 other isoform, or with tags, fused parts or gaps limits assumed, chain 2 of 2): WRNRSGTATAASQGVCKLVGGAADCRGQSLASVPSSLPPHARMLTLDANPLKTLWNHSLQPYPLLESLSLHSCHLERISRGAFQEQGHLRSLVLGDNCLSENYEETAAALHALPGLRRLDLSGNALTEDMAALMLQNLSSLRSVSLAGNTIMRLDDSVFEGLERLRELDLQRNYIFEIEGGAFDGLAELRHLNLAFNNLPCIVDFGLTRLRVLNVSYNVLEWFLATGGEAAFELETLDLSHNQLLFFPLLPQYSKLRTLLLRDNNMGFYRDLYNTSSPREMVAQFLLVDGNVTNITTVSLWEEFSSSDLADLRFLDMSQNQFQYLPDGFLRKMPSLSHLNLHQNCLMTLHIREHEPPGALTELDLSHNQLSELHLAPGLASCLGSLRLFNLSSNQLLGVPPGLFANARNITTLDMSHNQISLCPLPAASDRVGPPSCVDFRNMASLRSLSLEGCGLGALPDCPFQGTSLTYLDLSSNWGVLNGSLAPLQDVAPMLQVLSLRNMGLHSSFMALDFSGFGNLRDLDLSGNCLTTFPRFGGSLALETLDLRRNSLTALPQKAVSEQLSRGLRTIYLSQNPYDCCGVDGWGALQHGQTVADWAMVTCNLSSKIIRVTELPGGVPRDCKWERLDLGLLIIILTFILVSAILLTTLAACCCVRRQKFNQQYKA

Binder | IC50, reporter cell assay of TGFβ1 activation [1] [nM] | IC50, reporter cell assay of TGFβ1 activation [2] [nM] | IC50, reporter cell assay of TGFβ1 activation [3] [nM] | IC50, reporter cell assay of TGFβ1 activation [4] [nM] | further results
Ab4 (antibody, V domains shown) VH: EVQLVESGGGLVQPGGSLRLSCAASGFTFSSYSMNWVRQAPGKGLEWVSYISSSSSTIYYADSVKGRFTISRDNAKNSLYLQMNSLRAEDTAVYYCARGVLDYGDMLDPWGQGTLVTVSS VL: DIQMTQSPSSLSASVGDRVTITCQASQDITNYLNWYQQKPGKAPKLLIYDASNLETGVPSRFSGSGSGTDFTFTISSLQPEDIATYYCQQADNHPPWTFGGGTKVEIK | 5.2 | 5.6 | 0.8 | – | –
Ab5 (antibody, V domains shown) VH: EVQLVESGGGLVQPGGSLRLSCAASGFTFSSFSMDWVRQAPGKGLEWVSYISPDASTIYYADSVKGRFTISRDNAKNSLYLQMNSLRAEDTAVYYCARGVLDYGDMLDPWGQGTLVTVSS VL: DIQMTQSPSSLSASVGDRVTITCQASQDITNYLNWYQQKPGKAPKLLIYDASNLETGVPSRFSGSGSGTDFTFTISSLQPEDIATYYCQQADNHPPWTFGGGTKVEIK | 1.3 | – | 0.1 | 0.6 | –
Ab6 (antibody, V domains shown) VH: EVQLVESGGGLVQPGGSLRLSCTASGFTFSSFSMDWVRQAPGKGLEWVSYISPSADTIYYADSVKGRFTISRDNAKNTLYLQMNSLRAEDTAVYYCARGVLDYGDMLMPWGQGTLVTVSS VL: DIQMTQSPSSLSASVGDRVTITCQASQDITNYLNWYQQKPGKAPKLLIYDASNLETGVPSRFSGSGSGTDFTFTISSLQPEDIATYYCQQADNHPPWTFGGGTKVEIKR | – | – | – | – | IC50 (read off the curve); percent TGFβ activity, LN229 / CAGA12 luciferase reporter co-culture (LTBP:proTGFβ1): ~1 nM; IC50 (inhibition of latent TGFβ1 activation, LN229 transfectants with CAGA12 reporter cells) (Human): 1.07 nM; IC50 (inhibition of latent TGFβ1 activation, LN229 transfectants with CAGA12 reporter cells) (Rat): 1.11 nM; IC50 (inhibition of latent TGFβ1 activation, LN229 transfectants with CAGA12 reporter cells) (Cyno): 1.02 nM
Ab6 Fab (Fab, V domains shown, also called Fab fragment of Ab6) VH: EVQLVESGGGLVQPGGSLRLSCTASGFTFSSFSMDWVRQAPGKGLEWVSYISPSADTIYYADSVKGRFTISRDNAKNTLYLQMNSLRAEDTAVYYCARGVLDYGDMLMPWGQGTLVTVSS VL: DIQMTQSPSSLSASVGDRVTITCQASQDITNYLNWYQQKPGKAPKLLIYDASNLETGVPSRFSGSGSGTDFTFTISSLQPEDIATYYCQQADNHPPWTFGGGTKVEIK | – | – | – | – | Kd [5]: 0.124 nM; koff [5]: 0.000255 s⁻¹; kon [5]: 2.05e+06 M⁻¹ s⁻¹; Kd [6]: 0.488 nM; koff [6]: 0.000831 s⁻¹; kon [6]: 1.7e+06 M⁻¹ s⁻¹; Kd [7]: 0.104 nM; koff [7]: 0.000218 s⁻¹; kon [7]: 2.1e+06 M⁻¹ s⁻¹; Kd [8]: 0.145 nM; koff [8]: 0.000123 s⁻¹; kon [8]: 845000 M⁻¹ s⁻¹
Ab26 (antibody, V domains shown) VH: EVQLVESGGGLVQPGGSLRLSCAASGFTFSSFSMDWVRQAPGKGLEWVSYISPDASTIYYADSVKGRFTISRDNAKNTLYLQMNSLRAEDTAVYYCARGVLDYGDMLDPWGQGTLVTVSS VL: DIQMTQSPSSLSASVGDRVTITCQASQDITNYLNWYQQKPGKAPKLLIYDASNLETGVPSRFSGSGSGTDFTFTISSLQPEDIATYYCQQADNHPPWTFGGGTKVEIK | 0.7 | 0.7 | 0.3 | 0.3 | –
Ab33 (antibody, V domains shown) VH: EVQLVESGGGLVQPGGSLRLSCAASGFTFSSFSMNWVRQAPGKGLEWVSYISPSADTIYYADSVKGRFTISRDNAKNTLYLQMNSLRAEDTAVYYCAHGVLDYGDMLDPWGQGTLVTVSS VL: DIQMTQSPSSLSASVGDRVTITCQASQDITNYLNWYQQKPGKAPKLLIYDASNLETGVPSRFSGSGSGTDFTFTISSLQPEDIATYYCQQADNHPPWTFGGGTKVEIK | 1.6 | 1.1 | 0.2 | 0.7 | –
Ab25 (antibody, V domains shown) VH: EVQLVESGGGLVQPGGSLRLSCAASGFTFGSFSMDWVRQAPGKGLEWVSYISPDASTIYYADSVKGRFTISRDNAKNSLYLQMNSLRAEDTAVYYCARGVLDYGDMLDPWGQGTLVTVSS VL: DIQMTQSPSSLSASVGDRVTITCQASQDITNYLNWYQQKPGKAPKLLIYDASNLETGVPSRFSGSGSGTDFTFTISSLQPEDIATYYCQQADNHPPWTFGGGTKVEIK | 6.1 | 0.51 | 0.4 | 0.7 | –
Ab29 (antibody, V domains shown) VH: EVQLVESGGGLVQPGRSLRLSCAASGFTFSSFAMNWVRQAPGKGLEWVSYISPDASTIYYAGSVKGRFTISRDNAKNSLYLQMNSLRAEDTAVYYCVRAVLDYGDMLDPWGQGTLVTVSS VL: DIQMTQSPSSLSASVGDRVTITCQASQDITNYLNWYQQKPGKAPKLLIYDASNLETGVPSRFSGSGSGTDFTFTISSLQPEDIATYYCQQADNHPPWTFGGGTKVEIK | 0.5 | 0.8 | 0.3 | 0.5 | –
Ab21 (antibody, V domains shown) VH: EVQLVESGGGLVQPGGSLRLSCAASGFTFSSFSMDWVRQAPGKGLEWVSYISPDASTIYYADSVKGRFTISRDNAKNSLYLQMNSLRAEDTAVYYCARGVLDYGDMLDPWGQGTLVTVSS VL: DIQMTQSPSSLSASVGDRVTITCQASQDITNYLNWYQQKPGKAPKLLIYDASNLETGVPSRFSGSGSGTDFTFTISSLQPEDIATYYCQQADNHPPWTFGGGTKVEIK | 1.6 | 0.8 | 0.4 | 0.6 | –
Ab23 (antibody, V domains shown) VH: EVQLVESGGGLVQPGGSLRLSCAASGFTFSSFSMNWVRQAPGKGLEWVSYISPSADTIYYADSVKGRFTISRDNAKNTLYLQMNSLRAEDTAVYYCARGVLDYGDMLDPWGQGTLVTVSS VL: DIQMTQSPSSLSASVGDRVTITCQASQDITNYLNWYQQKPGKAPKLLIYDASNLETGVPSRFSGSGSGTDFTFTISSLQPEDIATYYCQQADNHPPWTFGGGTKVEIK | 0.8 | 0.9 | 0.3 | 0.6 | –
